Measurements as given in patent US20140357845A1 (published 2014).

Experiments:
[1] = molecular target: HA of influenza virus A/Johannesburg/33/94 (H3) (influenza A virus H3); assay: cell-based or functional assay
[2] = molecular target: HA of influenza virus A/WF/MPA 892/06 (H4) (influenza A virus H4); assay: cell-based or functional assay
[3] = molecular target: HA of influenza virus A/Hong Kong/1073/99 (H9) (influenza A virus H9); assay: cell-based or functional assay
[4] = molecular target: HA of influenza virus A/EW/MPF461/07 (H5) (influenza A virus H5); assay: cell-based or functional assay
[5] = molecular target: HA of influenza virus A/EW/MPD411/07 (H6) (influenza A virus H6); assay: cell-based or functional assay
[6] = molecular target: HA of influenza virus A/Panama/2007/1999 (H3) (influenza A virus H3); assay: cell-based or functional assay
[7] = molecular target: HA of influenza virus A/Brisbane/10/2007 (H3) (influenza A virus H3); assay: cell-based or functional assay
[8] = molecular target: HA of influenza virus A/Chick/Germany/N/49 (H10) (influenza A virus H10); assay: cell-based or functional assay
[9] = molecular target: HA of influenza virus A/Env/MPU3156/05 (H2) (influenza A virus H2); assay: cell-based or functional assay
[10] = molecular target: HA of influenza virus A/Ck/HK/SSP176/09 (H9) (influenza A virus H9); assay: cell-based or functional assay
[11] = molecular target: HA of influenza virus A/Hiroshima/52/2005 (H3) (influenza A virus H3); assay: cell-based or functional assay
[12] = molecular target: HA of influenza virus A/EW/MPH571/08 (H8) (influenza A virus H8); assay: cell-based or functional assay
[13] = molecular target: H3-mini2-cl9 + 10 + 11 + 13-GCN4 (influenza A virus H3N2); assay: FACS
H3-mini2-cl9 + 13 = H3-mini2-cl9 + 13 (influenza A virus H3N2, UniProt Q38SQ8 18-566); assay: FACS
[14] = molecular target: H3-mini2-cl9 + 10 + 11 + 13 (influenza A virus H3N2, UniProt Q38SQ8 18-566); assay: FACS
[15] = molecular target: H3-mini2-cl9 + 10 + 11-GCN4 (influenza A virus H3N2); assay: FACS
[16] = molecular target: H3-mini2-cl9 + 10 + 11-tri (influenza A virus H3N2); assay: FACS
[17] = molecular target: H3-mini2-cl9 + 10 + 11 + 13-tri (influenza A virus H3N2); assay: FACS

B1: CR9114 (antibody, V domains shown)
VH: QVQLVQSGAEVKKPGSSVKVSCKSSGGTSNNYAISWVRQAPGQGLDWMGGISPIFGSTAYAQKFQGRVTISADIFSNTAYMELNSLTSEDTAVYFCARHGNYYYYSGMDVWGQGTTVTVSS
VL: SYVLTQPPAVSGTPGQRVTISCSGSDSNIGRRSVNWYQQFPGTAPKLLIYSNDQRPSVVPDRFSGSKSGTSASLAISGLQSEDEAEYYCAAWDDSLKGAVFGGGTQLTVL
- geomean IC50, virus neutralization assay (VNA) [1]: 21.9 µg/mL
- geomean IC50, virus neutralization assay (VNA) [2]: 0.8 µg/mL
- geomean IC50, virus neutralization assay (VNA) [3]: 4.4 µg/mL
- geomean IC50, virus neutralization assay (VNA) [4]: 10.5 µg/mL
- geomean IC50, virus neutralization assay (VNA) [5]: 10.5 µg/mL
- geomean IC50, virus neutralization assay (VNA) [6]: 39.9 µg/mL
- geomean IC50, virus neutralization assay (VNA) [7]: 5.6 µg/mL
- geomean IC50, virus neutralization assay (VNA) [8]: 15.7 µg/mL
- geomean IC50, virus neutralization assay (VNA) [9]: 8.8 µg/mL
- geomean IC50, virus neutralization assay (VNA) [10]: 6.3 µg/mL
- geomean IC50, virus neutralization assay (VNA) [11]: 12.5 µg/mL
- geomean IC50, virus neutralization assay (VNA) [12]: 8.8 µg/mL
- binding result [13]: no binding (tested: 5 microgram/ml)
- binding result (H3-mini2-cl9 + 13): no binding (tested: 5 microgram/ml)
- binding result [14]: no binding (tested: 5 microgram/ml)
- binding result [15]: no binding (tested: 5 microgram/ml)
- binding result [16]: no binding (tested: 5 microgram/ml)
- binding result [17]: no binding (tested: 5 microgram/ml)
